Positions count from the first letter of the chain named.
Assays:
[1] = target: T1, full-length ILT2 expressed on Jurkat cells (human, UniProt Q8NHL6 24-650); test: flow cytometry, Jurkat cells expressing human ILT2
T1 construct: whole, on cells; The Jurkat line also carries FcgRIIIa and an NFAT-luciferase reporter (Promega/G7102); also called Jurkat cells expressing human ILT2; ILT2-expressing Jurkat reporter cells

[2] = target: T2, human ILT2 extracellular and transmembrane domains expressed on CHO cells (human, UniProt Q8NHL6 24-482, limits assumed); test: flow cytometry, CHO cells with low human ILT2
T2 construct: domain: extracellular and transmembrane domains; which one is told under assay; also called CHO cells expressing human ILT2 (relatively low or relatively high level); CHO-ILT2 cells
Procedure: For the antibody binding assay, the cells were seeded in a 96-well U-bottom tissue culture plate at a density of 3×10⁵ cells per well in 25 μL of PBS supplemented with 0.5% BSA, 1 mM EDTA and 0.05% sodium azide (FACS Buffer). The cells were incubated for 30 minutes at 4° C. with 25 μL of a series dilution of anti-ILT2 antibodies or isotype control, at final concentrations ranging from 10 μg/mL to 0.2 ng/mL in FACS Buffer.
After a 30-minute incubation in the dark at 4° C., the cells were washed twice with cold FACS Buffer, and the cells were analyzed by flow cytometry (BD LSR Fortessa Flow Cytometer). CHO cells were identified using a plot of forward scatter-area (FSC-A) versus side scatter area (SSC-A) and another plot of FSC-A versus forward scatter-height (FSC-H) for selection of single cells. Samples were analyzed by sequentially gating on the single cell population and plotting histograms representing the fluorescence in the PE channel. For each sample, mean fluorescence intensity (MFI) was calculated, and the data were plotted by GraphPad Prism software.

[3] = target: T3, ECD-His tagged human ILT2 haplotype PE01 (human, UniProt Q8NHL6 24-458); test: SPR, captured antibody, ILT2 ECD-His analyte
T3 construct: also called Human ILT2 PE01 ECD; LILRB1/ILT2 PE01; not shown: His tag
Procedure: (§1) The binding affinity of anti-ILT2 antibody variants with IgG1 N297A constant regions to ECD-His tagged human ILT2 haplotypes PE01, PE02, PE03 (see Table 1) was assessed by surface plasmon resonance (SPR).
(§2) Briefly, SPR experiments were performed using a Biacore T200 instrument, and the association rate (Kₐ), dissociation rate (Kd), and dissociation constant (KD) were calculated from each experiment using a 1:1 binding model with Biacore™ T200 Evaluation Software. Capture of antibodies from the Human Fab Capture kit (28958325, GE Healthcare) to the Series S CM5 sensor chip (29149603, GE Healthcare) was performed using the immobilization wizard for amine coupling from the Biacore™ control panel and following the manufacturer's recommendations included with the kit.
(§3) Approximately 3 μg/mL of tested anti-ILT2 antibodies and controls diluted in a running buffer (10 mM HEPES, 150 mM NaCl, 3 mM EDTA, and 0.05% surfactant P20) were captured in individual flow cells of previously prepared anti Human Fab CM5 chip, keeping a single flow cell as a reference. Antibodies were captured using a 30 sec injection at a flow rate of 10 μL/min to reach about 150 resonance units (Rus). Human ILT2 ECD PE01 (diluted in the running buffer at the concentration of 30, 10, 3.3, 1.11, 0.37, 0.12 nM), and human ILT2 ECD PE02 and PE03 (diluted in the running buffer at the concentration of 33.3, 11.1, 3.7, 1.2, 0.41, 0.14 nM), were flowed over the chip surface at a flow rate of 30 μL/min with a 3-min association phase and a 10-min dissociation phase. The sensor chip was regenerated between cycles with a double 30-sec injection of 10 mM glycine, pH 2.1 at 30 μL/min followed by stabilization period of 60s. Sensorgrams were evaluated and fit to a simple Langmuir 1:1 interaction model using the global data analysis option of BIAevaluation 3.1 software. Data quality was verified by visually inspecting deviations and curve fitting, and by evaluating the parameters of Rₘₐₓ, Chi2, and Tc.

[4] = target: T4, ECD-His tagged human ILT2 haplotype PE02 (human, UniProt Q8NHL6 24-458); test: SPR, captured antibody, ILT2 ECD-His analyte
T4 construct: also called Human ILT2 PE02 ECD; not shown: His tag
Procedure: as §1, §2, §3

[5] = target: T5, ECD-His tagged human ILT2 haplotype PE03 (human, UniProt Q8NHL6 24-458); test: SPR, captured antibody, ILT2 ECD-His analyte
T5 construct: also called Human ILT2 PE03 ECD (Sino biological, 16014-H08H); not shown: His tag
Procedure: as §1, §2, §3

[6] = target: T3, ECD-His tagged human ILT2 haplotype PE01; test: SPR, ILT2 PE01 ECD-His, average of two measurements
Procedure: as §2
Variants of irrelevant antibody VRC01 (with IgG1, IgG1 N297A, IgG4 S228P, IgG2, or IgG2 C127S constant regions) were used as negative isotype controls. The binding kinetics are shown in Table 5 as an average from two independent measurements.

[7] = target: T2, human ILT2 extracellular and …; test: flow cytometry, CHO cells with high human ILT2
Procedure: For the antibody binding assay, the cells were seeded in a 96-well U-bottom tissue culture plate at a density of 3×10⁵ cells per well in 25 μL of PBS supplemented with 0.5% BSA, 1 mM EDTA and 0.05% sodium azide (FACS Buffer). The cells were incubated for 30 minutes at 4° C. with […] of a series dilution of anti-ILT2 antibodies or isotype control at concentrations from 10 μg/mL to 2.4 ng/mL in FACS Buffer.
After a 30-minute incubation in the dark at 4° C., the cells were washed twice with cold FACS Buffer, and the cells were analyzed by flow cytometry (BD LSR Fortessa Flow Cytometer). CHO-ILT2 cells were identified and MFI was calculated as above.

T4 sequence (Q8NHL6 other isoform, or with tags, fused parts or gaps): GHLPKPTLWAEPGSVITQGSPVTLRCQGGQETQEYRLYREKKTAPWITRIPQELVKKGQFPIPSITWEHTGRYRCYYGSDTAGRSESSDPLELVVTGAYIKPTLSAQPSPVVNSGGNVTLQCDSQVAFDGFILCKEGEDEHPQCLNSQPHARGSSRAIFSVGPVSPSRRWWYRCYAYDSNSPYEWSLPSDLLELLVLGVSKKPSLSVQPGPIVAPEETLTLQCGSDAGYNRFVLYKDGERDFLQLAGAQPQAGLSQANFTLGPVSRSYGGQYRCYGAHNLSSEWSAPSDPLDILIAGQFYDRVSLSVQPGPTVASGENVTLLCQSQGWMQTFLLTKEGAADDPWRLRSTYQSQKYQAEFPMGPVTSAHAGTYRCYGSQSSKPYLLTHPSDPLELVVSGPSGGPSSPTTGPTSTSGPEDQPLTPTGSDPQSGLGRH
T3 sequence (Q8NHL6 24-458): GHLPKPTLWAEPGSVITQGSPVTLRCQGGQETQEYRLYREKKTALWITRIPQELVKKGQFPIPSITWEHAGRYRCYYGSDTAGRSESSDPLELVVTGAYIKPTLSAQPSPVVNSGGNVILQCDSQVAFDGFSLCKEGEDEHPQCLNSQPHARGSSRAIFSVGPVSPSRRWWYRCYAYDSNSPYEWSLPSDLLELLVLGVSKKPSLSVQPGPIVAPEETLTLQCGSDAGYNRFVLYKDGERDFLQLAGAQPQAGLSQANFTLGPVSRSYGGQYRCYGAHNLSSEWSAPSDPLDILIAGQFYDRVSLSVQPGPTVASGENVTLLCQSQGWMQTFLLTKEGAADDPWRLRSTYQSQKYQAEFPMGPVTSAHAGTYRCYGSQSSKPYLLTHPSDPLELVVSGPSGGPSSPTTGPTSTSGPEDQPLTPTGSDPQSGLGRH
T1 sequence (Q8NHL6 24-650): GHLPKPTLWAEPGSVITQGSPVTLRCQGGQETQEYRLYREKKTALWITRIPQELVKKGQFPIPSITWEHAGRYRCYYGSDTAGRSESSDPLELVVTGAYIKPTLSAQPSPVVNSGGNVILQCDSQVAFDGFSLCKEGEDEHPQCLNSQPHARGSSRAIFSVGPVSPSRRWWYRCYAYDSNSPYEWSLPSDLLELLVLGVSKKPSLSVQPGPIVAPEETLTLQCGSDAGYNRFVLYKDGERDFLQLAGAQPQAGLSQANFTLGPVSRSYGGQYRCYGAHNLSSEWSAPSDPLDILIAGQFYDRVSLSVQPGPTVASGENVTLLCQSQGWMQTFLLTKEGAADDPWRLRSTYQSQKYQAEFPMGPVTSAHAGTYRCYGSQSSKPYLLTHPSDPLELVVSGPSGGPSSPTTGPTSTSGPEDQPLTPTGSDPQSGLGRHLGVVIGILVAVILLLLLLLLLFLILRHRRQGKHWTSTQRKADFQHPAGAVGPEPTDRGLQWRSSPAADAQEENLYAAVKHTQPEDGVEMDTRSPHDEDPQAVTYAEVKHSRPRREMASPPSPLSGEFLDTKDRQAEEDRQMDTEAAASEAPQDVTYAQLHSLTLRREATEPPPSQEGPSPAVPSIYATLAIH
T5 sequence (Q8NHL6 other isoform, or with tags, fused parts or gaps): as the sequence (Q8NHL6 24-458) above, with L45P, I119T, S132I counted along it
T2 sequence (Q8NHL6 24-482 limits assumed): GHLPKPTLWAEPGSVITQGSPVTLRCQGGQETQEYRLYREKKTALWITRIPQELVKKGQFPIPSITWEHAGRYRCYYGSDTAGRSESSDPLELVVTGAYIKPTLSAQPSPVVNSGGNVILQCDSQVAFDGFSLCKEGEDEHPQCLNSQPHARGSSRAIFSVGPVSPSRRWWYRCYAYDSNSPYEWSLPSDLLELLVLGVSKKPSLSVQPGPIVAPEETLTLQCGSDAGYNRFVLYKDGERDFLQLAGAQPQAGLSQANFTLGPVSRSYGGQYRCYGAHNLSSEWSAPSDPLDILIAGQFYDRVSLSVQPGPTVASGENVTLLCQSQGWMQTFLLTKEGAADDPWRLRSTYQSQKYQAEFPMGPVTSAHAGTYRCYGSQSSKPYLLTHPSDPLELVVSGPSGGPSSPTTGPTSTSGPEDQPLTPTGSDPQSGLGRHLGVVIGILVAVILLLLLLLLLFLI

B1: BA212 (antibody, human IgG1, kappa, N297A, V domains shown)
VH: QVQLVQSGAEVKKPGASVKVSCKASGYTFNRYYMHWVRQAPGQGLEWMGWINPYTGGTNYAQKFQGRVTMTRDTSISTAYMELSRLRSDDTAVYYCASKQPSSDYWGQGTLVTVSS
VL: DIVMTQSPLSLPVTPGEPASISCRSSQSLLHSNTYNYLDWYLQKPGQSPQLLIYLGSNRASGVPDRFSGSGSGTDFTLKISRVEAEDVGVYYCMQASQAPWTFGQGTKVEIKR
[1]
  AUC: 222000
  EC50: 0.057 µg/mL
[2]
  AUC: 15100
  EC50: 0.087 µg/mL
[3]
  Kd: 0.089 nM
  koff: 3.3e-06 s⁻¹
  kon: 37000 M⁻¹ s⁻¹
[4]
  Kd: 0.783 nM
  koff: 0.00021 s⁻¹
  kon: 270000 M⁻¹ s⁻¹
[5]
  Kd: 0.875 nM
  koff: 0.0004 s⁻¹
  kon: 460000 M⁻¹ s⁻¹

B2: BA216 (antibody, human IgG1, kappa, N297A, V domains shown)
VH: B1 VH
VL: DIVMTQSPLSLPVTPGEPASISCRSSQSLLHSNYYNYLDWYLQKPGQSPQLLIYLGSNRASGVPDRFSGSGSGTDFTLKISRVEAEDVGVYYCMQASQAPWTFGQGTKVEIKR
[1]
  AUC: 199000
  EC50: 0.07 µg/mL
[2]
  AUC: 14400
  EC50: 0.078 µg/mL
[3]
  Kd: 0.185 nM
  koff: 6.7e-05 s⁻¹
  kon: 360000 M⁻¹ s⁻¹
[4]
  Kd: 0.617 nM
  koff: 0.00014 s⁻¹
  kon: 230000 M⁻¹ s⁻¹
[5]
  Kd: 0.317 nM
  koff: 8.5e-05 s⁻¹
  kon: 270000 M⁻¹ s⁻¹

B3: BA213 (antibody, human IgG1, kappa, N297A, V domains shown)
VH: B1 VH
VL: not shown
[1]
  AUC: 189000
  EC50: 0.11 µg/mL
[2]
  AUC: 13600
  EC50: 0.175 µg/mL
[3]
  Kd: 0.033 nM
  koff: 1.1e-05 s⁻¹
  kon: 320000 M⁻¹ s⁻¹
[4]
  Kd: 0.63 nM
  koff: 0.00015 s⁻¹
  kon: 230000 M⁻¹ s⁻¹
[5]
  Kd: 0.149 nM
  koff: 7.5e-05 s⁻¹
  kon: 500000 M⁻¹ s⁻¹

B4: BA217 (antibody, human IgG2, kappa)
heavy: QVQLVQSGAEVKKPGASVKVSCKASGYTFNRYYMHWVRQAPGQGLEWMGWINPYTGGTNYAQKFQGRVTMTRDTSISTAYMELSRLRSDDTAVYYCASKQPSSDYWGQGTLVTVSSASTKGPSVFPLAPCSRSTSESTAALGCLVKDYFPEPVTVSWNSGALTSGVHTFPAVLQSSGLYSLSSVVTVPSSNFGTQTYTCNVDHKPSNTKVDKTVERKCCVECPPCPAPPVAGPSVFLFPPKPKDTLMISRTPEVTCVVVDVSHEDPEVQFNWYVDGVEVHNAKTKPREEQFNSTFRVVSVLTVVHQDWLNGKEYKCKVSNKGLPAPIEKTISKTKGQPREPQVYTLPPSREEMTKNQVSLTCLVKGFYPSDIAVEWESNGQPENNYKTTPPMLDSDGSFFLYSKLTVDKSRWQQGNVFSCSVMHEALHNHYTQKSLSLSPGK
light: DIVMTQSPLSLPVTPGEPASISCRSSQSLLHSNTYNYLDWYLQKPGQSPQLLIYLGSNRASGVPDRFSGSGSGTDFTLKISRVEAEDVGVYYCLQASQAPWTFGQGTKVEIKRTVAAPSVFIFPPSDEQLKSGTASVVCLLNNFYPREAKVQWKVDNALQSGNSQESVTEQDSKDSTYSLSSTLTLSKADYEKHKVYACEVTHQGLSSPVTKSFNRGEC
[6]
  Kd: 0.17 nM
  koff: 5.4e-05 s⁻¹
  kon: 340000 M⁻¹ s⁻¹
[7]
  AUC: 264000
  EC50: 0.248 µg/mL

B5: BA219 (antibody, human IgG2, kappa)
heavy: B4 heavy with C130S
light: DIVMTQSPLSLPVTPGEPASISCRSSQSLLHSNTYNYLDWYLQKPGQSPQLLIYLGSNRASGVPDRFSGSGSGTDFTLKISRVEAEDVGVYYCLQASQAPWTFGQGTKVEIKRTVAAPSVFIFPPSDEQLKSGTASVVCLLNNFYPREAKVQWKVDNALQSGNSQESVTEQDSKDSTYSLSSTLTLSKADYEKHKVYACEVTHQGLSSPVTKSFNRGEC
[6]
  Kd: 0.14 nM
  koff: 4.8e-05 s⁻¹
  kon: 350000 M⁻¹ s⁻¹
[7]
  AUC: 307000
  EC50: 0.183 µg/mL

B6: BA246 (antibody, human IgG2, kappa)
heavy: B4 heavy
light: not shown
[6]
  Kd: 0.23 nM
  koff: 7.4e-05 s⁻¹
  kon: 330000 M⁻¹ s⁻¹

B7: BA247 (antibody, human IgG2, kappa)
heavy: B4 heavy with C130S
light: not shown
[6]
  Kd: 0.31 nM
  koff: 9.7e-05 s⁻¹
  kon: 330000 M⁻¹ s⁻¹

B8: BA220 (antibody, human IgG2, kappa)
heavy: B4 heavy with C130S
light: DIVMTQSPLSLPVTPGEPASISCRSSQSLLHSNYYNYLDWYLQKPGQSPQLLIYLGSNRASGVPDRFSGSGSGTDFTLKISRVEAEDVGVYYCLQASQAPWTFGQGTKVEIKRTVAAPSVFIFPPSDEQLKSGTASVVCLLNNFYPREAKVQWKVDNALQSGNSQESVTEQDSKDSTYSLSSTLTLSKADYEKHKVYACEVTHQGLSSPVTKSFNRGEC
[6]
  Kd: 0.14 nM
  koff: 5.7e-05 s⁻¹
  kon: 420000 M⁻¹ s⁻¹
[7]
  AUC: 305000
  EC50: 0.282 µg/mL

B9: BA218 (antibody, human IgG2, kappa)
heavy: B4 heavy
light: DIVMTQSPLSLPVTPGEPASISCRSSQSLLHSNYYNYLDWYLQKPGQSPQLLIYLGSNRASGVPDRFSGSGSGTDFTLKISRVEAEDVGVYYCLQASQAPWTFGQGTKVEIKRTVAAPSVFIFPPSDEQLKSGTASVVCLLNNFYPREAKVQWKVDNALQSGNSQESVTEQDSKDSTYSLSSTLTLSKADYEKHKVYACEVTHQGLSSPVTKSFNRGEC
[6]
  Kd: 0.19 nM
  koff: 7e-05 s⁻¹
  kon: 390000 M⁻¹ s⁻¹
[7]
  AUC: 295000
  EC50: 0.227 µg/mL

— patent US20250109201A1 (AGENUS, published 2025)
